{"source": "patent US20180134781A1", "about": "(Regeneron, published 2018)", "binders": {"B1": {"name": "H4H15314P2 (antibody, human IgG4, V domains shown)", "VH": "QVQLVQSGAEVKKPGASVKVSCKASGYTFTSYDINWVRQATGQGLEWMGWMNPNGDNTGYAQKFQGRVTMTGDTSISTAYMELSSLRSEDTAVYYCAREGIWGFDPWGQGTLVTVSS", "VL": "DIQMTQSPSSLSASVGDRVTITCRASQDIRNDLGWYQQKPGKAPKRLIYAASSLQSGVPSRFSGSGSGTEFTLTISSLQPEDFATFYCLQHNTFPRTFGQGTKVEIK", "notes": "human IgG4 Fc (H4H prefix)"}}, "key": {"[1]": {"molecular_target": "T1, hLDLR-mFc (negative control protein with the same mFc tag) (human, UniProt P01130 22-788)", "T1 construct": "also called Irrelevant control; not shown: mFc tag ('the same mFc tag', mouse IgG2a Fc)", "T1 sequence (P01130 22-788)": "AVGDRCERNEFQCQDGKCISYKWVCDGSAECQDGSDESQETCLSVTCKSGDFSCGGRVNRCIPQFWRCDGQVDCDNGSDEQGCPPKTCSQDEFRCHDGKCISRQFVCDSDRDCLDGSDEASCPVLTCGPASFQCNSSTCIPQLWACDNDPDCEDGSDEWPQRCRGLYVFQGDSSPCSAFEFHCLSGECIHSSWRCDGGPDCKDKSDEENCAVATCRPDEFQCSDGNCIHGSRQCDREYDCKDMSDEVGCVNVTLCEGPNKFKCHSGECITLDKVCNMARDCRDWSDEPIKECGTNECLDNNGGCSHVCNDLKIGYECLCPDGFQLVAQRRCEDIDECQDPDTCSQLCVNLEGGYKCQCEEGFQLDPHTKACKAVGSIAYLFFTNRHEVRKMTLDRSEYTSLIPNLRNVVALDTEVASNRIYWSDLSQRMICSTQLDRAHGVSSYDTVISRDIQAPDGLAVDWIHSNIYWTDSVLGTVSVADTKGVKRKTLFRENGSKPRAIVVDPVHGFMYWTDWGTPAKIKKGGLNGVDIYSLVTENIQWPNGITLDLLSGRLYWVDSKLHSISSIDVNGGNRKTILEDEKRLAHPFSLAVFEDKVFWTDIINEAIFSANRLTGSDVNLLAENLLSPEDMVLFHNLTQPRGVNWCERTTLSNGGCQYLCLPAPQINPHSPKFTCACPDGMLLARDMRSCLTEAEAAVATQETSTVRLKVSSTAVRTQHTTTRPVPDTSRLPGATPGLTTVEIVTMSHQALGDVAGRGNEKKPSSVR", "assay": "BLI (Octet HTX), hLDLR-mFc captured on AMC sensor", "procedure": "(§1) Binding of ANGPTL8 antibodies to human and monkey ANGPTL8 proteins was investigated using Bio-layer Interferometry with an Octet HTX biosensor platform (ForteBio, A Division of Pall Life Sciences). All experiments were performed at 25° C. in 10 mM HEPES pH 7.4, 150 mM NaCl, 0.05% v/v Surfactant Tween-20, and 1 mg/ml BSA with the reaction multiwell plate agitated at 1000 rpm. Approximately 1.6 nm of human ANGPTL8 produced with a C-terminal mouse IgG2a Fc tag (hANGPTL8-mFc; SEQ ID NO: 340) or cynomolgus monkey ANGPTL8 produced with a C-terminal mouse IgG2a Fc tag (MfANGPTL8-mFc; SEQ ID NO: 341) was captured onto anti-mFc (AMC) Octet biosensors by submerging the sensors into wells containing 10 μg/mL of each protein for 4 minutes. Under the same conditions a negative control protein with the same mFc tag (hLDLR-mFc) was also coupled to the AMC sensor. All four sensors, […] and one blank, were then submerged into wells containing 100 nM of different ANGPTL8 monoclonal antibodies or an isotype control for 4 minutes."}, "[2]": {"molecular_target": "T2, monkey ANGPTL8 expressed with C-terminal mouse IgG2a Fc tag (cynomolgus monkey)", "T2 construct": "also called MfANGPTL8-mFc; mfANGPTL8-mFc", "T2 chain": "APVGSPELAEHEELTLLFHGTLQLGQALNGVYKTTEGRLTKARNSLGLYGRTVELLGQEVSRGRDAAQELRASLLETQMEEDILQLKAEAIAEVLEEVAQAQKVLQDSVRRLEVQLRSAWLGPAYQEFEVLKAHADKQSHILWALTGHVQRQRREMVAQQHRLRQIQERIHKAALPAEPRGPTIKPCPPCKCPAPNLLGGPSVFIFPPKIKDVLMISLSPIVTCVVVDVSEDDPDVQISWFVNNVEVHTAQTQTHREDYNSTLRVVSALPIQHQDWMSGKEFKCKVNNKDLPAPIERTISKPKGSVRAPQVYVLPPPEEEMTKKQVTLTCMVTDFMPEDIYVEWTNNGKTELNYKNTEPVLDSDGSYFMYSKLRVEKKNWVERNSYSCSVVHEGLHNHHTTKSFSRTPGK", "assay": "BLI (Octet HTX), MfANGPTL8-mFc captured on AMC sensor", "procedure": "as §1"}}, "data": [{"binder": "B1", "values": [{"measurement": "binding result", "setting": "[1]", "result": "no binding (tested: 0.03 nm at 100 nM mAb)"}, {"measurement": "binding result", "setting": "[2]", "result": "no binding (tested: background 0.03 nm at 100 nM mAb)"}]}]}
